In the nanobody polyreactivity screen of Harvey et al. (2022):

Assay: yeast display, Sf9 membrane polyspecificity reagent, FACS + sequencing; frameworks hold sequencing errors
Method in brief: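 Genes from sorted yeast were amplified by colony PCR, read by MiSeq 2 × 250 sequencing and filtered on CDR length. These cells carried a synthetic nanobody library in Saccharomyces cerevisiae BJ5465 and were sorted by FACS into low and high (top ~1%) gates on anti-HA and streptavidin fluorescence. Polyreactivity is labelled according to the gate of origin.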

Sequence	polyreactivity (PSR sort gate)
QVQLVESGGGLVQAGGRLRISSAASGRIFAYYAMGWYRQAPGKERELVAANTTNGGGTYYADSVKGRFTISRDNAKNTVSLQMNSLNPEDPAFYYCATQFEGPAGFNNWGQGTQVTVSS	low polyreactivity
QVQLVETGGGLVQAGGSLRLSCAASGRTLIGNAMGWYRQAPGKERELVAAISFRGTRTYYADSVKGRFTISRDNAKNTFYLQMNSLKPEDTAVYYCNVYTRDRGYDYWGQGTQVTVSS	high polyreactivity
QVQLVESGGGLVQAGGRLRLSCAASGTIFPLNAMGWYRQAPGKERELVATISSGGSTYYADSVKGRFTISRDNAKNTVYLQMNSLKPEFTAVYYCAADSWVQFEYWGQGTQVTVSS	low polyreactivity
QVQLVESGGGLVQAGGSLRLSCAASGIIFYQNTMGWYRQAPGKERELVATITKRGGSTYYADSVKGRFTISRDNAKNTVYLQMNSLKPEDTAVYYCNAAKYAASYIGYGYWGQGTQVTVSS	high polyreactivity
QVQLVESGGGLVQAGGSLRLSCAASGFIFKRYTMGWYRPAPGKERELVATINWNGGNTYYADSVKGRFTISRDNAKNTVYLQMNSLKPEDTAVYYCNARYWRGQGWPGYDYWGQGTQVTVSS	high polyreactivity
QVQLVESGGGLVQAGGSLRLSCAASGITFPGYAMGWYRQAPGKERELVAAISTSGGSTYYADSVKGRFTISRDNAKNTVYLQMIRLKPEDTAVYYCAADSFVTSFHWRFDYWGQGTQVTVSS	low polyreactivity
QVQLVESGGGLVQAGGSLRLSCAASGRTSFNYTMGWYRQAPGKERELVAAITSGGDTYYADSVKGRFTISRDNAKNTVYLQMNSLKPEDTAVYYCNADPDFPSKFDDPYSYDYWGQGTQVNVSS	low polyreactivity
QVQLVESGGGLVQAGGSLRLSCASSGITFWSYAMVWYRQAPGKERELVAAISRGGDSTYYADSVKGRFTISRDNAKNTVYLQMNSLKPEDTAVYDCAALRPREEYYWGHGTQVTVSS	high polyreactivity
QVQLLESGGGLVQAGGSLRLSCASSGSIFHTYAMGWYRPAPGKERELVAAISSGGRTYYADSVKGRFTISRDNAKNTVYLQMNSLKPEDTAVYYCAVRPRPGYYYWGQGTQVTVSS	high polyreactivity
QVQLVESGGGLVKAGGSLRLSSAASGRILYGNAMGGYRQAPGKERELVAANTRRGGSTYYADSVKGRFTISRDNAKNTVSLQMNSLKPEDTAVYYCAASRYTSYYKDGCYAYYYWGQGTQVTVSS	high polyreactivity
QVQLVESGGGLVQAGGSLRLSCAASGRTFRRYAMGWYRQAPGKERELVAAISRSGGSTSYADSVKGRFTISRDNAKNTVYLQMKSLKPEDTAVYYCAVEVASYDRRPSEYYWGQGTQVTVSS	high polyreactivity
QVQLVESGGGLVQAGGSLRLSCAASGRISQIYAMGWYRQAPGTERELVASISSSGSRTYYADSVKGRFTISRDNAKNTVYLQMNSLKPEDTAVYYCAARWWARSNRYDYWGQGTQVTVSS	high polyreactivity
QVQLVESGGGLVQAGGSLRLSCAASGSIFAAYTMGWYRQAPGKERELVAAISVSTVSTYYADSVKGRFTISRDTAKNTVYLQMNRLKPEDTAVYYCNADATDSYPEKDEHDSWGQGTQVTVSS	low polyreactivity
QVQLVESGGGLVQAGGSLRLSCAASGITFYDNAMGWDRQAPGKEREFVAAISKSGGNTYYADSVKGRFTISRDNAKNTVYLQMNSLKPEDTAVYYCDARTQAFSRKGYGYWGQGTQVTVSS	high polyreactivity
QVQLVESGGGLVQAGGSLRLSCAASGSTFRGYAMGWYRQATGKERELVAAISSSGGRTYYADSVKGRFTISRDNAKNPVYLQMNSLKREDTAVYYCNAASKNSVRYAYQNYDYRGQGTQVTVSS	high polyreactivity
QVQLVESGGGLVQAGGSLRLSCAASGSIFYWYAMGWYRQAPGKERELVAGITGRGGSTYYADSVKGRFTISRDNAKNTVYLQMNSLKPEDSAVYYADFVKYGKYYQRYDYWAQGTQVTVSS	high polyreactivity
QVQLVESGGGLVQAGGSLRLSCAASGRTFKYYAMGWYRQAPGKERELVAAISRGGSTNYADSVKGRFTISRDNAKNTVYLQVNSLKPEDTAVYYCARRYIVQSGDDYWGQGTQVTVSS	low polyreactivity
QVQLVESGGGLVQAGGSLRLSCAASGIIFYGYAMGWYRQATGKERELVAAISSGGGTNYADSVKGRFTISRDNAKNTVYLQMNSLKPEDTAVYYCAARQYRYYYWGQGTQVTVSS	high polyreactivity
QDQLVESGGRLVQAGGSLRLSCAASGRTFYYYAMGWYRQAPGKERELVARIRSGGSTNYADSVKGRFTISRDNAKNSVYLQMNSLKPEDTAVYYCNALGAKGYVKGFDYWGQGTQVTVSS	low polyreactivity
QVLLQESGGGLVQAGGSLRLSCAASGTISTDIRMGWYRLAPGKEREFVASIDGCSTTYYADSVKGRFTISRDNAKNTVYLQMNSLKPEDTEMYYCAAREATEFYLYYWGQGTQVTVSS	low polyreactivity
QVQLVESGGGLVQAGGSLRLSCAASGSIFPVYAMGWYRQAPGKERELVAAISWIGGGTYYADSVKGRFTISRDNAKNTVYLQMNSLKPEDTAVYYCAAVPYTSEYDYWGQGTKVTVSS	high polyreactivity
QVQLVESGGGLVQAGGSLRLSCAASGNIFANYAMGWYRQAPGKERELVAAIRWSASRPYYADSVKGRFTISRDNAKNTVYLQMNSLKPEDTAVYYCAATIYTFWDYYYDYWGQGTQVTVSS	high polyreactivity

Sequence	polyreactivity (PSR sort gate)
QVQLVESGGGLVQAGGSLRLSCAASGFTFYVYAMGWYRQAPGKERELVAAISKSGGSTYYADSVKGRFTISRDNAKNTVYLQMNSLKPEDTAVYYCAVYDKRSGYRGGHRYNSWGQGTQVTVSS	high polyreactivity
QVQLVESGGRIVQAGGSLRLRCAASGSTFHRYAMGRYRQAPGKERELVAAISRSGGSTYYADSVKGRFTISRDTAKNTVYLLMNSLKPVDTAVYYCAADRTGHGFGYWGQGTQVTVSS	high polyreactivity
QVQLVESGGGLVQAGGTLRFSCAATGSIFDPYARGWYRQAPGKEREFVAAITYTGGDTHYADSVKGRFSISRDKAKNTVYLQLNSLKPEDSAVYYFAAVYYRGIQSYDYWGQGTQVTVSS	low polyreactivity
QVQLVESGGGLVQAGGSLRLSCAASGFILYFNAMGWYRQAPGKERELVAAITSDGGSTYYADSVKGRFTISRDNAKNTVYLQMNSLKPEDTAVYYCAADASTWYTEEYWGQGTQVTVSS	low polyreactivity
QVQLVDSGGGLVQAGGSLRLSCAASGLTFTRYAMGWYRQAPGKERELVAAISKNGGSTYYADSVKGRFTISRDNAKNTVYLQMNSLKPAETAVYYCAARRYGPGRYPEDYWGQGTQVTVSS	high polyreactivity
QVHLVESGGGLVQAGGSLRLSCAASGFPFGSYAMGWDRPAPGKERELVSGISRGGSTNYADSVKGRFTISRDNAKNTVYLQMNSLKPEDTAVYYCAARAVFVADTGATPAGYDYWGQGTQVTVSS	low polyreactivity
KVQLVESGGGLVQAGGSLRLSCAASGSIFHNYDMGWYRQAPGKERELVADISRGGDTNYADSVKGRFTISRDNAKNTVYLEMKSLKPEDTAVYYCNATYWILDFPWWRETFDYWGQGTQVTVSS	low polyreactivity
QVQLVESGGGLVQAGGSLRLSCAASGFTFYRYTMGWYRQAPGKERELVASITRRGGSTYYADSVKGRFTISRDNAKNTVYLQMNSLKPEDTAVYYCNAATPVWQSGTYEYWGQGTQVTVSS	high polyreactivity
QVQLVESGGGLVQAGGSVRLSFAASGSSIFGNFMGWYRQAPGKERELVAGITNRGGSTYFADSVKGRFTISRDNAKITVYLQMNSLKPEDTAVYYCAARKNHSGYGRGNYWGQGTQVTVSS	high polyreactivity
QVQLVESGGGLVQAGGSLRLTCAATGRIFSRYAMGWYRQAPGKERELVAAISRSGGSTYYADSVKGRFTISRDNAKNTVYFQMNSLKPEDTAVYYCAARNVFSYPPGSYYYWGQGTQVTVSS	high polyreactivity
QVQLVESGGGLVQAGGSLRLSCSATGFIFYRYAMGWYRQAPGKERELVAAISSSGGSTYYADSVKGRFTISRDNAKTTVSLQMNSLKPEDTAVYYCNKRPQQYRPGYDYWGQGTQVTVSS	high polyreactivity
EVQLVESRGGLVQAGGSLRLSCAASGRIFRVYTMGWYRQAPGKERELVAAISRGGTTTYADSVKGRFTISCDNAKNTVYLQMNSLKPEDTAVYYCNARGWFRGEFDYWGQGTQVTVSS	high polyreactivity
QVQLVESGGGLVQAGGSLRLSCAASGSIFVVYAMGWYRQAPGKARALVAAITSDDDTNYADSVKGRFTLSRDNAKNTVYLQMNSLKPEDTAVYYCAKEVWLAINTRTGYEVYYWGQGTQVTVTS	low polyreactivity
QVQLVESGGGLVQAGGSLRLSCAASGSTLVVNGMGWYRQAPGKERELVASISSDGSTNYADSVKGRFTISRDNAKNTVYLQMNSLKPEDTAVYYCAADEGTGQASLSSNLYDYWGQGTQVTVSS	low polyreactivity
QVQLVESGGGLVQAGGSLRLSCAASGRIFYAYAMGWYRQAPGKERELVAAISSSGRTYYADSVKGRFTISRDNAKNTVYLQMNSLKPEDTAVYYCAAPGSPYGYWGQGTQVTVSS	high polyreactivity
QVQLVESGGGLVQAGGSFRLSCAASGGTFDTYVMGWYRQAPGKERELVAVITRGASTYYADSVKGRFTISRDNAKNTVYLQMNSLKPEDTAVYYCAAAVYSPDYYRFWYSFDYWGQGTQVTVTS	low polyreactivity
QDQLGESGGGLVQAGGSLRLSCAASGSTFYAYAMGWYRQAPGKERELVATISWSGGSTYADCVKGRFTISRDNAKNTVYLQMNSLKPEDTPVYYCNAAGAFYPTQVHPGYTLWSYDYWGQGTQVTVSS	low polyreactivity
QVQLVESGAGLVQAGGSLRLSCAASGSNFKWYAMGLYRQAPGKEREFVAAITWSGSGTFYADSVKGRFTISRDNAKKTVYLQMNSLKPEDTAVYYCNKADSYLLYSVTARYFRGFYSWGQVTQVTVSS	high polyreactivity
QVLRVDSGGGLVQAGGSLRLSCAASGSIFGFYARGWDRQAPGTERELVAAITFSGGSTDYTDSVKGRFTISSDNAKNTVYLQMNSLKTEDTSVYYCADRGYAIYSYWYYEPYDYWGQGTQVTVSS	high polyreactivity
QVQLVESGGGLVQAGGSLRLSCAASGRTFVYYAMGWYRQAPGKERELVAAISGSGGSTYYADSVKGRFTISRDNAKNTVYLQMNSLKPEDTAVYYCNVRGPGFYWNWGQSHYYGYDYWGQGTQVTVSS	high polyreactivity
QVQLVESGGGLVQAGGSLRLSCAASGSILYPNAMGLYRQAPGKERELVAAISSSGGSTYYADSVKGRFTISRDNAKNTVYLQMNSLKPEDTAVYYCAADHYIPIYSKYDYWGQVTQVTVSS	high polyreactivity
